Measurements published in patent US20230391854A1 (Innovent, published 2023).

Biological target: nCoV S (ACRO, SPN-C52H4) (SARS-CoV-2, UniProt P0DTC2 16-1213)

B1: P14-37 (antibody, V domains shown)
VH: EVQLVESGGGLVKPGGSLRLSCAASGFTFSNAWMSWVRQAPGKGLEWVGRIKRNSDGGTTDHAAPVTGRFIISRDDSKNTLYLQMNSLRTEDTAVYYCTTDLDTVVRRVVITDHDAFDIWGQGTMVTVSS
VL: DIQMTQSPSSLSASVGDRVTITCRASQSISSFLNWYQQKAGKAPKLLIYAASSLQSGVPSRFSGSGSGTDFSLTISNLQPEDFATYYCQQSYSTPSITFGQGTRLEIK
notes: also called candidate antibody molecule P14-37
EC50: 0.0161 nM

B2: P5-22 (antibody, V domains shown)
VH: EVQLVESGGGLVKPGGSLRLSCAASGFTFRDYDIIWIRQAPGKGLEWVSYISRSGSTIYYSDSVRGRFTISRDNAKNSVYLQMNSLRAEDTAVYYCARDFGFEGPRMDVWGQGTTVTVSS
VL: DIQMTQSPSSLSASVGDRVTITCQASQDIKNYLNWYQQKPGKAPKLLIYDASNLETGVPSRFSGSGSGTDFTFTISSLQPEDIATYYCQQFDNLPITFGQGTRLEIK
notes: also called candidate antibody molecule P5-22
EC50: 0.0226 nM

B3: P3-11 (antibody, V domains shown)
VH: QVQLVESGGGLVQPGGSLRLSCAASGITVSSNYMSWVRQAPGKGLEWVSVIYSGGSTFYADPVKGRLTISRDNSKNTLYLQMNSVRVEDTAVYYCARGEGWELPFDYWGQGALVTVSS
VL: QSALTQPPSASGSPGQSVTISCTGTSSDVGGNKYVSWYQQHPGKAPKLIIYEVSKRPSGVPDRFSGSKSGNTASLTVSGLQAEDEADYHCSSYAGSNNLVFGGGTKLTVL
notes: also called candidate antibody molecule P3-11
EC50: 0.0226 nM

B4: P23-29 (antibody, V domains shown)
VH: QVQLQESGPGLVKPSETLSLTCTVSGDSISSSTYYWGWIRQPPGKGLEWIGSMYYGRSTYYNPSLKSRVTVSVDTSKNQLSLKVSSVTAADTAVYYCARHLGGVDYWGQGTLVTVSS
VL: DIQMTQSPSSLSASVGDRVTITCRASQGISNSLAWYQQEPGKAPKLLLYAASTLESGVPSRFSGSGSGADSTLTISSLQPEDFATYYCQQYYSASALTFGGGTKVEIK
notes: also called candidate antibody molecule P23-29
EC50: 0.0364 nM

B5: P10-20 (antibody, V domains shown)
VH: QVQLVESGGGLVKPGGSLRLSCAASGFTFSDYYMSWIRQAPGKGLEWVSYISISSTYTNYADSVKGRFTISRDNAKNSLYLQMNSLRAEDTAVYYCVIAAAGKGHYYYGMDVWGQGTTVTVSS
VL: not shown
notes: also called candidate antibody molecule P10-20
EC50: 0.0184 nM

B6: P15-16 (antibody, V domains shown)
VH: QVQLVESGGGLVQPGRSLTLSCAASGFTFDDYAMHWVRQAPGKGLEWVSGISWNSGTIDYADSVKGRFTISRDNAKNSLYLQMNSLRAEDTALYYCATLPRERAYSGYDRIFYTIDVWGQGTTVTVSS
VL: not shown
notes: also called candidate antibody molecule P15-16
EC50: 0.0228 nM

B7: P14-44 (antibody, V domains shown)
VH: QVQLVQSGAEVKKPGASVKVSCKASGYIFTSYSMHWVRQAPGQGLEWMGTIKPSDDSTNYAQKFQGRVSMTRDTSTSTVYMELSSLRYEDTAVYYCAREARGYYDRSGYYHPGYFDYWGQGTLVTVSS
VL: QSVLTQPASVSGSPGQSITISCTGTSSDVGGYNFVSWYQQHPGKAPKLMIYEVSDRPSGVSSRFSGSKSGNTASLTISGLQAEDEADYYCFSYTTSTTWVFGGGTKLTVL
notes: also called candidate antibody molecule P14-44
EC50: 0.0213 nM
